# Measurements from patent WO2007042289A2 (dated 2007).
# How the values were obtained:
# [1] = biological target: T1, purified EGFR (Sigma) (human, UniProt P00533 25-1210, limits assumed)
# T1 construct: Bought; purified from human A431 cells; also called solid phase coated EGFR
# [2] = biological target: T2, EGFR expressed on cells and on A431 derived membrane vesicles (human, UniProt P00533 25-1210)
# T2 construct: whole, on cells; Used for assays on whole cells and on immobilised A431 membrane vesicles; also called EGF receptor; EGFR harboring A431 vesicles
# [3] = biological target: T3, recombinant human IGF-IR (rhIGFIR) (human, UniProt P08069 31-932, limits assumed); test: SPR (BIAcore), immobilized IGF-IR
# T3 construct: Bought; also called immobilized IGF-IR
Binder,koff [1] [s⁻¹],other results
"PMP38G7 (VHH, also called Nanobody family VIII) VHH: EVQLVESGGGLVQAGGSLRLSCAASGRTFSSYVMGWFRQATGKEREFVATIAWDSGSTYYADSVKGRFTISRDNAKNTVHLQMNSLKPEDTAVYYCAASYNVYYNNYYYPISRDEYDYWGQGTQVTVSS",≤ 0.0017,–
"PMP7A5 (VHH, Anti-EGFR Nanobody; tag not described; also called EGFRPMP7A5) VHH: EVQLVESGGGLVQAGGSLRLSCAASDRTFSSNNMGWFRQAPGKEREFVAAIGWGGLETHYSDSVKGRFTISRDNAKNTVYLQMNSLKPEDTARYYCAVSSTRTVIYTLPRMYNYWGQGTQVTVSS",≤ 0.0017,–
"27-10-E8 (VHH, Anti-EGFR Nanobody, tested as periplasmic extract or IMAC purified protein; tag not described; also called Type A Nanobody) VHH: EVQLVESGGGLVQAGGSLRLSCAASGRTFSTYTMAWFRQAPGKEREFVQGISRSDGGTYDADSVKGRFTISRDNAKNTVYLQMNSLKPEDTAVYFCAAASVKLVYVNPNRYSYWGQGTQVTVSS",≤ 0.0017,–
"PMP9C1 (VHH, Anti-EGFR Nanobody; tag not described; also called Nanobody family X; Type C Nanobody) VHH: EVQLVESGGGLVQAGGSLRLSCAASGRTFSGFAMGWFRQAPGKEREFVAAISWSGGSLLYVDSVKGRFTISRDNAKNTVHLQMNSLKPGDTAVYYCAAMVGPPPRSLDYGLGNHYEYDYWGQGTQVTVSS",–,binding result [2]: binds
"PMP1C7 (VHH, Anti-IGF-IR Nanobody; tag not described; also called IGFRPMP1C7) VHH: QVKLEESGGGLVQAGGSLRLSCVASGRTFSRTAMAWFRQAPGKEREFVATITWNSGTTRYADSVKGRFFISKDSAKNTIYLEMNSLEPEDTAVYYCAATAAAVITPTRGYYNYWGQGTQVTVSS",–,koff [3]: 0.0019 s⁻¹
"PMP7E12 (VHH, Anti-EGFR Nanobody) VHH: EVQLVESGGGLVQAGGSLRLSCTASGRTFENNAMAWFRQAAGKEREFVAGFSGSGGATYYAHSVEGRFTISRDNAKNTVDLQMNSLSLEDTAVYLCAARRKSGEVVFTIPARYDYWGQGTQVTVSS",≤ 0.0017,–
